Source: patent US7247438

Tests used:
[1] = target: activated thymic caspase (~17 kD subunit) of VSV8-triggered N15 TCRtg RAG-2-/- H-2b mouse thymocytes (mouse); experiment: cell-based or functional assay
[2] = target: activated thymic caspase (~17 kD subunit) of VSV8-triggered N15 TCRtg RAG-2-/- H-2b mouse thymocytes (mouse); experiment: preincubation with zVADfmk, competitor biotin-DEVDamk, thymic lysate, streptavidin-HRP blot
[3] = target: mouse CD3ε (mouse) (UniProt P22646); experiment: cell-based or functional assay
[4] = target: VSV8/Kb complex (vesicular stomatitis virus; mouse) (UniProt P01887); experiment: cell-based or functional assay
Chain of VSV8/Kb complex (vesicular stomatitis virus; mouse) (P01901 22-369 limits assumed, chain 2 of 2): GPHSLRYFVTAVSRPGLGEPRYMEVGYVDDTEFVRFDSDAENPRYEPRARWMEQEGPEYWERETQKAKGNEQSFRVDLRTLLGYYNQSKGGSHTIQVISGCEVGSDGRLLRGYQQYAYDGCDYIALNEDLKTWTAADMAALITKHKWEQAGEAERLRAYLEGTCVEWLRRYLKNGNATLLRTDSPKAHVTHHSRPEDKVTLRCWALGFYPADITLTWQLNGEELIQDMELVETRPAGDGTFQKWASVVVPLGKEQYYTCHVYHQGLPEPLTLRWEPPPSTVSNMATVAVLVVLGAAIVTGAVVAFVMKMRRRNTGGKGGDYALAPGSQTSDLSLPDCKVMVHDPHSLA
Chain of VSV8/Kb complex (vesicular stomatitis virus; mouse) (P01887 21-119 limits assumed, chain 3 of 2): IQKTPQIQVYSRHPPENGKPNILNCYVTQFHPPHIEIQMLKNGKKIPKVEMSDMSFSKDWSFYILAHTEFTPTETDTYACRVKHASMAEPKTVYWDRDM

N-benzyloxycarbonyl-Val-Ala-Asp(OMe)-fluoromethylketone (peptide)
TdT positive cells per mm2 (TUNEL), FTOC N15tg #1, zVADfmk + VSV8 (TdT positive cells / mm2) [1]: 6 | TdT positive cells per mm2 (TUNEL), FTOC N15tg #2, zVADfmk + VSV8 (TdT positive cells / mm2) [1]: 1 | TdT positive cells per mm2 (TUNEL), FTOC N15tg #3, zVADfmk + VSV8 (TdT positive cells / mm2) [1]: 2 | molar excess over biotin-DEVDamk at which the ~17 kD band is no longer detectable [2]: 100 to 1000 fold

anti-CD3ε specific hamster anti-mouse mAb 145-2C11 (antibody)
percent DP thymocytes in C57BL/6 FTOC after 18 hours with 200 mg/ml 2C11 mAb (FACS) [3]: 37%

N-(Z-Valinylalanyl)aspartic acid methyl ketone, b-methyl ester (peptide)
TdT positive cells per mm2 (TUNEL), FTOC N15tg #1, zVADmk + VSV8 (TdT positive cells / mm2) [1]: 360 | TdT positive cells per mm2 (TUNEL), FTOC N15tg #2, zVADmk + VSV8 (TdT positive cells / mm2) [1]: 525 | TdT positive cells per mm2 (TUNEL), FTOC N15tg #3, zVADmk + VSV8 (TdT positive cells / mm2) [1]: 461

N15 TCR
TdT positive cells per mm2 (TUNEL), FTOC N15tg #1, VSV8 (TdT positive cells / mm2) [4]: 429 | TdT positive cells per mm2 (TUNEL), FTOC N15tg #2, VSV8 (TdT positive cells / mm2) [4]: 456 | TdT positive cells per mm2 (TUNEL), FTOC N15tg #3, VSV8 (TdT positive cells / mm2) [4]: 441
